Experimental data as given in PMC10609148, “Hexa-Histidine, a Peptide with Versatile Applications in the Study of Amyloid-β(1–42) Molecular Mechanisms of Action” (Molecules, 2023).

Columns and labels:
[1] = target: human recombinant cytochrome b5 reductase (Cb5R) with a His6-tag (human); test: other fluorescence titration; FAD fluorescence (ex 460 nm, em 520 nm) of 32 nM Cb5R with a His6-tag titrated with Aβ peptides; 20 mM phosphate, 0.1 mM DTPA, pH 7, 25 °C; one-site fit; apparent constant, in peptide monomers
[2] = target: human recombinant cytochrome b5 reductase (Cb5R) with a His6-tag (human); test: inhibition of enzyme activity (NADH-dependent Cb5 reductase activity); 0.11 μg/mL Cb5R with a His6-tag, 5 μM Cb5, 0.25 mM NADH, rising Aβ peptide; absorbance at 550 nm; 20 mM phosphate, 0.1 mM DTPA, pH 7, 25 °C; fit to one inhibitor binding site; in Aβ monomers

EC50 [1]: 75 nM
half-saturation constant in the fitted one-site equation [1]: 99.3
Ki [2]: 50 to 60 nM
Substance: Aβ(25–35) (peptide)
